Ends that are not written are not given here. * marks the point of attachment. Hexanoyl = CCCCCC(=O)*
Assays:
human VPAC2 [1] = biological target: T1, human VPAC2 (Homo sapiens, UniProt P41587); experiment: Alpha screen in vitro potency: human VPAC2-R mediated cAMP generation; format: cell-based; conditions: single results or mean of two or more independent runs
T1 construct: expressed in transfected cells
T1 sequence (P41587 24-438): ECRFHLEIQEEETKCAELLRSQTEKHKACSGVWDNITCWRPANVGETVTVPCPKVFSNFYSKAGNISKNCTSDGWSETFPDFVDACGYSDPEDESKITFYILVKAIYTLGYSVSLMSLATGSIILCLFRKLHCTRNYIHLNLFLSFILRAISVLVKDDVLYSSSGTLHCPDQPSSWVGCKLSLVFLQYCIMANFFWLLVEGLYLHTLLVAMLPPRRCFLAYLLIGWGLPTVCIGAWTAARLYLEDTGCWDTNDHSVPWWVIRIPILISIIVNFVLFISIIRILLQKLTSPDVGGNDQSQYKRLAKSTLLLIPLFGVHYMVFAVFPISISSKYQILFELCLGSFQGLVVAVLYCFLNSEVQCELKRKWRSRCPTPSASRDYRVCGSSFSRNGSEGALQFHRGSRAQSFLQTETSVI

human VPAC2 [2] = biological target: T1, human VPAC2; experiment: Filter binding assay, membranes from stable VPAC2 cell line, 125I-labeled VIP tracer; conditions: read-out: Human receptor binding (IC50; nM) VPAC2
Experimental: (§1) For this assay, the solutions and equipment include:
(§2) Presoak solution: 0.5% Polyethyleneamine in Aqua dest.
(§3) Buffer for flushing filter plates: 25 mM HEPES pH 7.4
(§4) Blocking buffer: 25 mM HEPES pH 7.4; 0.2% protease free BSA
(§5) Assay buffer: 25 mM HEPES pH 7.4; 0.5% protease free BSA
(§6) Dilution and assay plate: PS-Microplate, U form
(§7) Filtration Plate Multiscreen FB Opaque Plate; […] Type B Glasfiber filter
(§8) In order to prepare the filter plates, the presoak solution is aspirated by vacuum filtration. The plates are flushed twice with 200 μL flush buffer. 200 μL blocking buffer is added to the filter plate. The filter plate is then incubated with 200 μL presoak solution for 1 hour at room temperature.
(§9) The assay plate is filled with […] (2.5 μg) suspended in assay buffer, 25 μL compound (agonist) in assay buffer, and 25 μL tracer (about 40000 cpm) in assay buffer. The filled plate is incubated for 1 hour with shaking.
(§10) The transfer from assay plate to filter plate is conducted. The blocking buffer is aspirated by vacuum filtration and washed two times with flush buffer. 90 μL is transferred from the assay plate to the filter plate. The 90 μL transferred from assay plate is aspirated and washed three times with 200 μL flush buffer. The plastic support is removed. It is dried for 1 hour at 60° C. 30 μL Microscint is added. The count is performed.
(§11) Values reported are single results or the mean of two or more independent runs.

human VPAC1 = biological target: T2, human VPAC1 (Homo sapiens, UniProt P32241); experiment: Filter binding assay, membranes from cells transiently transfected with human VPAC1, 125I-labeled VIP tracer; conditions: read-out: Human receptor binding (IC50; nM) VPAC1
T2 construct: expressed in transfected cells
T2 sequence (P32241 31-457): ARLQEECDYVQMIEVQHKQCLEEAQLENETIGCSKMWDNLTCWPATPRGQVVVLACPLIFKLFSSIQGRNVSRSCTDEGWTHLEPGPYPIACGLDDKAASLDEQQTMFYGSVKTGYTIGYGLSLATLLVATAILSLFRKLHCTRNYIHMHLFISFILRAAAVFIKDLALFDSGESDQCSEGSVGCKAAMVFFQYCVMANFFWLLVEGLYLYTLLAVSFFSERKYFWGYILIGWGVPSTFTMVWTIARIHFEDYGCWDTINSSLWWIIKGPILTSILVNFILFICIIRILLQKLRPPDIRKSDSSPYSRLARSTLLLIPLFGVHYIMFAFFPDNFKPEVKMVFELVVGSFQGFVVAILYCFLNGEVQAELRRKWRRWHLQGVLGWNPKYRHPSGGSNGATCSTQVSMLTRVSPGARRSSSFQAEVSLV
Experimental: as §1, §2, §3, §4, §5, §6, §7, §8, §9, §10, §11

human PAC1 = biological target: T3, human PAC1 (Homo sapiens, UniProt P41586); experiment: Filter binding assay, membranes from cells transiently transfected with human PAC1, 125I-labeled PACAP-27 tracer; conditions: read-out: Human receptor binding (IC50; nM) PAC1
T3 construct: expressed in transfected cells
T3 sequence (P41586 21-468): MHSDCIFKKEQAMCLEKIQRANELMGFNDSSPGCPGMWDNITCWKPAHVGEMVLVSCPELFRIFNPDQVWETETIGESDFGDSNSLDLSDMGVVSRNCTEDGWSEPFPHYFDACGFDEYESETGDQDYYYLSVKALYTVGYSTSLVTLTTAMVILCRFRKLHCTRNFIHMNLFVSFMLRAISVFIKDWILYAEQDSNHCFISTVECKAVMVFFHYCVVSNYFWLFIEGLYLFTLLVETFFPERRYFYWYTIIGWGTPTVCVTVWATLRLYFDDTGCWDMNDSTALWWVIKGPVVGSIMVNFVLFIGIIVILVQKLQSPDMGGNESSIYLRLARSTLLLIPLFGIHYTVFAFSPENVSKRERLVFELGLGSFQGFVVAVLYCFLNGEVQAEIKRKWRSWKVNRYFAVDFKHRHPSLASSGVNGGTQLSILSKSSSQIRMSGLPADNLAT
Experimental: as §1, §2, §3, §4, §5, §6, §7, §8, §9, §10, §11

rat VPAC1 receptor = biological target: T4, rat VPAC1 receptor (Rattus norvegicus, UniProt P30083); experiment: Rat VPAC1 in vitro potency (cAMP generation, DiscoveRx) in transiently transfected CHO-PO cells; format: cell-based; conditions: CHO-PO cells transiently transfected with rat VPAC1; read-out: rVPAC1 in vitro potency (cAMP generation) EC50
T4 construct: expressed in transfected cells; host or cells: CHO-PO cells, transient
T4 sequence (P30083 31-459): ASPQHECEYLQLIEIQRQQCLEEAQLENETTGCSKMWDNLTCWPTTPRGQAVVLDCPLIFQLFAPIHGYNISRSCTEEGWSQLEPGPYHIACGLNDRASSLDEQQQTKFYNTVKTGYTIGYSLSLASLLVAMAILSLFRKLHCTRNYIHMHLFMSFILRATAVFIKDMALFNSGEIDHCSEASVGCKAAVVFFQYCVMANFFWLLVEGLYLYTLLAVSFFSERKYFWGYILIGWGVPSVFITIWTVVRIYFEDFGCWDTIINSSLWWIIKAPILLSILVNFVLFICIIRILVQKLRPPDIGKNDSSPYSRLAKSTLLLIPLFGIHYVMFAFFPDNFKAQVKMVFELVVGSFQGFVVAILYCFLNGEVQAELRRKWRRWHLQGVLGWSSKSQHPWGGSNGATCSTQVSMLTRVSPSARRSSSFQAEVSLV
Experimental: (§12) Rat receptor selectivity is estimated by comparing functional potency (cAMP generation) in CHO-PO cells transiently expressing rat VPAC1 or rat VPAC2 receptors. CHO-PO cells transiently expressing rat VPAC1 or VPAC2, are seeded with 10,000 cells/well three days before the assay. The cells are kept in 200 μL culture medium. […] The stimuli are present for 30 minutes. The assay buffer is then gently removed.

rat VPAC2 receptor = biological target: T5, rat VPAC2 receptor (Rattus norvegicus, UniProt P35000); experiment: Rat VPAC2 in vitro potency (cAMP generation, DiscoveRx) in transiently transfected CHO-PO cells; format: cell-based; conditions: CHO-PO cells transiently transfected with rat VPAC2; read-out: rVPAC2 in vitro potency (cAMP generation) EC50
T5 construct: expressed in transfected cells; host or cells: CHO-PO cells, transient
T5 sequence (P35000 23-437): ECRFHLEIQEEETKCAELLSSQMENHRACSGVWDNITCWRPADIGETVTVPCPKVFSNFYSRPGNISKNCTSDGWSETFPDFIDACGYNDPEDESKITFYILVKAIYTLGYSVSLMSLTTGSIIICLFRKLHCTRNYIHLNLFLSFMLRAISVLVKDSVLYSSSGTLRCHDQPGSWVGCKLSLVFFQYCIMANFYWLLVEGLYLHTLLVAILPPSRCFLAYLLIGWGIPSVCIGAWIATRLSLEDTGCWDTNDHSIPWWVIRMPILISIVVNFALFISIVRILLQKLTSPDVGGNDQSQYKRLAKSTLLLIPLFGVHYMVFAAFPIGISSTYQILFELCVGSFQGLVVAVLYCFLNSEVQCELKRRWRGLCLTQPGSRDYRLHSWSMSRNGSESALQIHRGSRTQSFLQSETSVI
Experimental: as §12

[3] = Pharmacokinetic profiles of PEGylated peptides, plasma peptide by RIA; format: in vivo, Fisher 344 rats; conditions: Fisher 344 rats, 100 μg compound/kg, plasma RIA, mean N = 3
Experimental: Pharmacokinetic profiles of PEGylated peptides. Healthy Fisher 344 rats (3 animals per group) are injected with 100 μg compound/kg (compound amount based on peptide content and dissolved in PBS buffer). […] PK parameters are then calculated using a model-independent method (WinNonlin Pro, Pharsight Corp., Mountain View, Calif., USA).

Normal Wistar rats = experiment: Intravenous glucose tolerance test (IVGTT), serum glucose and insulin; format: in vivo, rat; conditions: Dose = 10 μg/kg iv, time between glucose & compound 0 h
Experimental: Intravenous glucose tolerance test (IVGTT): Normal Wistar rats are fasted overnight and are anesthetized prior to the experiment. A blood sampling catheter is inserted into the rats. The compound is given in the jugular vein. Blood samples are taken from the carotid artery. A blood sample is drawn immediately prior to the injection of glucose along with the compound. After the initial blood sample, glucose mixed with compound is injected intravenously (i.v.). Compound may also be injected intravenously or subcutaneously prior to the glucose challenge. A glucose challenge of 0.5 g/kg body weight is given, injecting a total of 1.5 mL vehicle with glucose and agonist per kg body weight. The peptide concentrations are varied to produce the desired dose in μg/kg. Blood samples are drawn at 2, 4, 6 and 10 minutes after giving glucose. The control group of animals receives the same vehicle along with glucose, but with no compound added. In some instances, a 30 minute post-glucose blood sample is drawn. Aprotinin is added to the blood sample (250-500 kIU/ml blood). The serum is then analyzed for glucose and insulin using standard methodologies.
The assay uses a formulated and calibrated peptide stock in PBS. Normally, this stock is a prediluted 100 μM stock. However, a more concentrated stock with approximately 1 mg agonist per 1 mL is used. The specific concentration is always known. Variability in the maximal response is mostly due to variability in the vehicle dose.

human VPAC2 receptor [4] = biological target: T6, human VPAC2 receptor (human, UniProt P41587 24-438); experiment: cell-based or functional assay
T6 sequence (looked up): T1 sequence (P41587 24-438)

human VPAC2 receptor [5] = biological target: T6, human VPAC2 receptor; experiment: filter binding, VPAC2 membranes, 125I-VIP tracer
Experimental: The assay plate is filled with 25 mL assay buffer, 25 mL membranes (2.5 μg) suspended in assay buffer, 25 μL compound (agonist) in assay buffer, and 25 μL tracer (about 40000 cpm) in assay buffer. The filled plate is incubated for 1 hour with shaking.

[6] = biological target: T7, human VPAC2 receptor (human), P41587; experiment: cell-based or functional assay
T7 chain: T1 sequence (P41587 24-438)

[7] = biological target: T8, rat VPAC1 receptor (rat), P30083; experiment: cell-based or functional assay
T8 chain: T4 sequence (P30083 31-459)

[8] = biological target: T9, rat VPAC2 receptor (rat), P35000; experiment: cell-based or functional assay
T9 chain: T5 sequence (P35000 23-437)

[9] = biological target: T10, human VPAC1 receptor (human), P32241; experiment: filter binding, VPAC1 membranes, 125I-VIP tracer
T10 chain: T2 sequence (P32241 31-457)

[10] = biological target: T7, human VPAC2 receptor (human), P41587; experiment: filter binding, VPAC2 membranes, 125I-VIP tracer

C6-HSDAVFTDNYThRLRAibQVAAAibKYLQSIhRNhRhRYGGPSSGAPPPC(PEG40K)-NH2 (HSDAVFTDNYTXLRXQVAAXKYLQSIXNXXYGGPSSGAPPPC; non-natural residues) [Agonist P340]
EC50 (human VPAC2 [1]): 7.74 nM
IC50 (human VPAC2 [2]): 4.76 nM
IC50 (human VPAC1): > 3000 nM
IC50 (human PAC1): > 25000 nM
EC50 (rat VPAC1 receptor): 116 nM
EC50 (rat VPAC2 receptor): 4 nM
AUC0-last [3]: 515 ng·h/mL
Cmax [3]: 44 ng/mL
Tmax [3]: 6 h

C6-HSDAVFTDNYTRLLAKLALQKYLQSIKNKRYGGPSSGAPPPC(PEG40K) (Hexanoyl-HSDAVFTDNYTRLLAKLALQKYLQSIKNKRYGGPSSGAPPPC(PEG 40 kDa)) [Agonist P190, PEGylated peptide obtained from P164 and methoxy-PEG2-MAL-40K]
IC50 (human VPAC1): > 3000 nM
IC50 (human PAC1): > 25000 nM
% increase AUC (insulin, 0-10 min after glucose) (Normal Wistar rats): +73%

B1: P190 (peptide)
peptide: Hexanoyl-HSDAVFTDNYTRLLAKLALQKYLQSIKNKRYGGPSSGAPPPC(PEG 40 kDa)
notes: T0013 drops Thr 11 (print error); also called PEGylated P164
cAMP generation (EC50), Alpha screen (human VPAC2 receptor [4]): 2.14 nM
IC50 (human VPAC2 receptor [5]): 4.44 nM

HSDAVFTDNYTRLRKQVAAKKYLQSIKNKRYGGPSSGAPPPC (modifications not checked) [P137]
cAMP generation (EC50), Alpha screen [6]: 8.31 nM
cAMP generation (EC50), DiscoveRx, CHO-PO cells [7]: 29.7 nM
cAMP generation (EC50), DiscoveRx, CHO-PO cells [8]: 8 nM
IC50 [9]: 853 nM
IC50 [10]: 0.64 nM

HSDAVFTDNYTRLRRQVAAKRYLQSIRNGGPSSGAPPPS (modifications not checked) [P219]
cAMP generation (EC50), Alpha screen [6]: 25.5 nM
IC50 [10]: 67.9 nM

HSDAVFTDNYTRLRKQVAARRYLQSIRNGGPSSGAPPPS (modifications not checked) [P245]
cAMP generation (EC50), Alpha screen [6]: 450 nM
IC50 [10]: 921 nM

HSDAVFTDNYTRLRRQVAARKYLQSIRNGGPSSGAPPPS (modifications not checked) [P247]
cAMP generation (EC50), Alpha screen [6]: 133 nM
IC50 [10]: 353 nM

Reference: patent US20080146500A1, “Selective Vpac2 Receptor Peptide Agonists” (priority 2004, published 2008)
